Assay results from patent US20260166130A1, “PEPTIDE COMPOSITION HAVING ANGIOGENIC ACTIVITY, AND PHARMACEUTICAL COMPOSITION USING SAME AND COSMETIC COMPOSITION USING SAME” (LABTOMEDI CRO CO.,LTD., priority 2022, published 2026).

System: HUVECs
Test: Blood vessel (tube) formation assay on Matrigel
Type: cell-based, human
Details: 4 hours, vs. control
Experimental: HUVECs (20,000 cells/well) were seed on a layer of previously polymerized Matrigel and treated with or without the first peptide and the second peptide. The Matrigel culture was incubated at 37° C. After 4 hours, changes in cell morphology were captured using a phase-contrast microscope (×40). Each sample was assayed in duplicate, and independent experiments were repeated three times. *P<0.05, **P,0.01, ***P<0.001 (vs. control).
HUVECs (20,000 cells/well) were seeded on a layer of previously polymerized Matrigel, treated with the visfatin-derived peptides, and then incubated in a 5% CO2 incubator at 37° C. for 4 hours. Then, changes in the cell morphology were observed and photographed using a phase-contrast microscope at 40× magnification. Each sample was assayed in duplicate, and independent experiments were repeated three times. Angiogenesis was analyzed with ImageJ software using an angiogenesis analyzer (Bethesda, MD, USA).

B1: visfatin (protein, UniProt P43490 1-491, looked up)
Nicotinamide …: MNPAAEAEFNILLATDSYKVTHYKQYPPNTSKVYSYFECREKKTENSKLRKVKYEETVFYGLQYILNKYLKGKVVTKEKIQEAKDVYKEHFQDDVFNEKGWNYILEKYDGHLPIEIKAVPEGFVIPRGNVLFTVENTDPECYWLTNWIETILVQSWYPITVATNSREQKKILAKYLLETSGNLDGLEYKLHDFGYRGVSSQETAGIGASAHLVNFKGTDTVAGLALIKKYYGTKDPVPGYSVPAAEHSTITAWGKDHEKDAFEHIVTQFSSVPVSVVSDSYDIYNACEKIWGEDLRHLIVSRSTQAPLIIRPDSGNPLDTVLKVLEILGKKFPVTENSKGYKLLPPYLRVIQGDGVDINTLQEIVEGMKQKMWSIENIAFGSGGGLLQKLTRDLLNCSFKCSYVVTNGLGINVFKDPVADPNKRSKKGRLSLHRTPAGNFVTLEEGKGDLEEYGQDLLHTVFKNGKVTKSYSFDEIRKNAQLNIELEAAHH
notes: 55 kDa cytokine secreted from adipocytes, used as positive control
Second peptide except at the 2.0 μM concentration
  number of master junctions (tube formation): significantly increased
Positive controls
  number of meshes (tube formation): not significantly changed
